In publication PMC7040040 (2020):
Non-standard residues stand in square brackets, D forms with d. No end group written: not given here. pGlu = O=C1CC[C@@H](C(=O)O)N1

How the values were obtained:
[1] = biological target: T1, PBD-C06 (final humanized, de-immunized antibody with the complement mutation K322A) (human); assay: SPR
[2] = biological target: T1, PBD-C06 (final humanized, de-immunized …); assay: SPR; remark: listed apart in the source

T1 sequence (chain, as listed by the source K322A, chain 1 of 2): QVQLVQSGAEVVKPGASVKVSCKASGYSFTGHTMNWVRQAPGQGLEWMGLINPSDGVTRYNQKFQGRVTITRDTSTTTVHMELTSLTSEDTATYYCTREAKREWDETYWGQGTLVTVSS
T1 sequence (chain, as listed by the source K322A, chain 2 of 2): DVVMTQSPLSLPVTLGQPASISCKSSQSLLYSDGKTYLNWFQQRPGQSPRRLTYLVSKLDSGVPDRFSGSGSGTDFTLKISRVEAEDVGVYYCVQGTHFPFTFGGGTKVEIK

Row | Binder | Kd [1] [nM] | koff [2] [s⁻¹]
1 | FRHDSGYEVHHQKLV [Aβ(4–18) monomer] | > 50000 | 
2 | [pGlu]FRHDSGYEVHHQKLV [pE3-Aβ(3–18) monomer] | 7.86 | 0.00393
